Experimental data: patent US20210284730A1 (Janssen / Centocor, published 2021)

Assays:
human CD33 [1] = molecular target: T1, human CD33 (human, UniProt P20138 18-364); experiment: FACS binding to OCI-AML-3 tumor cell line (CD33+)
T1 construct: whole, on cells; The target is CD33 on CD33+ tumor cell lines; also called CD33 on MOLM-13, Kasumi-1, OCI-AML-3 and Kasumi-3 cells

human CD33 [2] = molecular target: T1, human CD33; experiment: FACS binding to MOLM-13 tumor cell line (CD33+)
human CD33 [3] = molecular target: T1, human CD33; experiment: FACS binding to Kasumi-1 tumor cell line (CD33+)

T1 sequence (P20138 18-364): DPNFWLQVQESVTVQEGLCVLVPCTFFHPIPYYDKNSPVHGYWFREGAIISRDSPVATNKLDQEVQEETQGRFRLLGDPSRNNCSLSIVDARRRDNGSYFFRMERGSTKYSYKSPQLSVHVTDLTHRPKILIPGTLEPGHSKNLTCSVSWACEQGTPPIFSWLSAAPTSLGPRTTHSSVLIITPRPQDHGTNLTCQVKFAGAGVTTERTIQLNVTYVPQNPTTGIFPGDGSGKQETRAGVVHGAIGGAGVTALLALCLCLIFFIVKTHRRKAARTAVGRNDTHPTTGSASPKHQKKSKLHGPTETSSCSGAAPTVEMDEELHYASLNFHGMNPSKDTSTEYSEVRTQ

EC50 (human CD33 [1]): 16.4 nM
EC50 (human CD33 [2]): 134 nM
EC50 (human CD33 [3]): 82.2 nM
B1: anti-CD33 antibody (clone C33B904) (antibody, V domains shown)
VH: EVQLVESGGGLVQPGRSLRLSCAASGFTFDDYAMHWVRQAPGKGLEWVSGIGWSGGSIVYADSVKGRFTISRDNAKNSLYLQMNSLRAEDTALYYCAKDSPYGDFFDYWGQGTLVTVSS
VL: DIVMTQSPDSLAVSLGERATINCKSSQTVFYSSNNKNYLAWYQQKPGQPPKLLISWASTRKSGVPDRFSGSGSGTDFTLTVSSLQAEDVAVYYCQHYYSTPYTFGQGTKLEIK
notes: also called anti-CD33 clone C33B904; anti-CD33 mAb
